From patent publication US20040167074A1, “Therapeutic applications of mFLINT polypeptides” (priority 1998, published 2004)
Where “and” joins values, the source holds several entries; their conditions need not be identical. Equal values may be shown once.

Key:
TNFβ = molecular target: T1, TNFβ (Homo sapiens, UniProt P01374); assay: Dot blot binding of mFLINT to TNF ligands
T1 construct: purchased
T1 sequence (P01374 35-205): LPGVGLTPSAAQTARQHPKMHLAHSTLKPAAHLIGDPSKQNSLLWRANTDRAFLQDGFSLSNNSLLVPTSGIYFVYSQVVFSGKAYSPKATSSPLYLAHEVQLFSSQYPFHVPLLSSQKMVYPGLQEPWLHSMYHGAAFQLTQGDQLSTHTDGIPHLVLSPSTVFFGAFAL

FasL = molecular target: T2, FasL (Homo sapiens, UniProt P48023); assay: BiaCore real-time biomolecular interaction analysis (surface plasmon resonance); format: binding
T2 construct: purchased Kamiya Biomedical Company
T2 sequence (P48023 130-281 limits assumed): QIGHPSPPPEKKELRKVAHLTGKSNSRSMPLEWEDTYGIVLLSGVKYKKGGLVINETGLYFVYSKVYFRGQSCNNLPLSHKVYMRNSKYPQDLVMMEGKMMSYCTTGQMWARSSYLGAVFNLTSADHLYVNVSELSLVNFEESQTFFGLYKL
Excerpt: FLINT-Fas L binding may be confirmed and specifics of binding determined (e.g., kinetics, specificity, affinity, cooperativity, relative binding pattern, concentration) using real-time biomolecular interaction analysis. This technology confers the ability to study biomolecular interactions in real time, without labeling any of the interactants. In particular, it takes advantage of the optical phenomenon surface plasmon resonance, and detection depends on changes in the mass concentration of macromolecules at the biospecific interface. Interactions are followed in real time, so that kinetic information is readily derived. In many cases, investigations can be performed without prior purification of components.
Measurements are accomplished using a BiaCore 2000 instrument. The instrument, accompanying chips, immobilization and maintenance kits and buffers are obtained from Biacore AB, Rapsgatan 7, S-754 50 Uppsala, Sweden. FasL is obtained from Kamiya Biomedical Company, 910 Industry Drive, Seattle, Wash. 98188, Guanidine Isothiocyanate Solution from GibcoBRL, and mFLINT is prepared as in Examples 8 and 9.
Experiments using immobilized FasL loaded with a solution containing mFLINT. […] This is explained by the fact that FasL is a trimer, yet here FasL monomer was bound. Further experiments utilized bound FLINT with FasL in solution, allowing for trimer formation. […] This observations indicate that FLINT should effectively compete with Fas for FasL binding, which likely explains the therapeutic benefit observed in experiments detailed below.

Jurkat cells [1] = assay: anti-CD3 induced Jurkat apoptosis (Annexin V/PI, FACS); format: cell-based; design: Cell apoptosis (Annexin V, FACS): unit not given here; details: for Cell apoptosis (positive staining with Annexin V): Example 12; for Cell apoptosis (Annexin V, FACS): Example 14
Procedure: Non-tissue treated 24 well plates (Decton Dickinson, Mansfield, Mass.) were coated with 0.5 ml of 1 ug/ml anti-CD3 (Farmingen) in PBS for 90 min at 37° C. The plate was washed once with PBS.
Cells were incubated overnight at 37° C. incubator and cells were then stained by Annexin V and PI staining. Apotosis was analyzed by flow cytometer (FACS). Cell apoptosis was indicated by positive staining with Annexin V.

Jurkat cells [2] = assay: Recombinant FasL induced Jurkat cell apoptosis (Annexin V/PI, FACS); format: cell-based; details: Jurkat + FasL 200 ng/ml + 1 ug test agent
Procedure: One milliliter of 1×10^6 cell/ml was added into each well of 24 well tissue culture plate and treated with following reagents: soluble Fas L (200 ng), Fas L plus 1 ug mFLINT, Fas L plus 1 ug OPG2-Fc, Trail (200 ng), Trail plus 1 ug mFLINT. Cells were incubated overnight at 37° C. and then stained with Annexin V and PI.

bone marrow cells = assay: Viable cell count of bone marrow cells from 5-FU treated mice after cytokine expansion; format: cell-based, mouse; details: FIG. 10; 3 days with SCF and IL-6; mFLINT 1 ug/ml, anti-FasL 1 ug/ml, FasL 0.15 ug/ml; control 3,300
Excerpt: Following a 3 day in vitro expansion period with cytokines, viable cells are counted and used to set up a CFU assay. If mFLINT or anti-FasL antibody protects progenitor cells from apoptosis, one would expect a greater number of colonies in these groups for the CFU assay. […] The values were: control cells: 3,300; FasL-treated cells: 3,000; anti-FasL-treated cells: 4,200; mFLINT-treated cells: 4,900.

[3] = system: Ventricular cardiomyocytes; assay: Hypoxia/reperfusion-induced cardiomyocyte apoptosis (nucleosome DNA ELISA)
Procedure: In particular, cardiomyocytes were incubated under hypoxia conditions for 8 hours, followed by 16 hours of culture under normal O2, which mimics the hypoxic conditions found in ischemic cardiac tissue.
Ventricular cardiomyocytes were isolated from the hearts of 1-3 day-old neonatal rats by trypsin digestion and non-myocytes were eliminated by pre-plating. Primary cultures were plated in special-coated 96-well plates in serum-free medium.
Hypoxia was induced by incubating cultures in glucose-free and oxygen-free (5% Co2 and 95% N2) for 8 hours. Reperfusion was mimicked by a 16 hour incubation in glucose-containing medium under normal oxygen conditions. At the end of this incubation, cardiomyocyte apoptosis was measured by the cytoplasmic nucleosome-associated DNA ELISA method. Test samples were incubated with mFLINT (2 μg/ml or 5 μg/ml) and control samples with Z-YVAD-fmk (50 μM), a commercial caspase inhibitor.

B1: mFLINT: mature FLINT without leader peptide (FIG. 3), soluble TNFR superfamily member, made according to Examples 8 and 9 (protein)
chain: VAETPTYPWRDAETGERLVCAQCPPGTFVQRPCRRDSPTTCGPCPPRHYTQFWNYLERCRYCNVLCGEREEEARACHATHNRACRCRTGFFAHAGFCLEHASCPPGAGVIAPGTPSQNTQCQPCPPGTFSASSSSSEQCQPHRNCTALGLALNVPGSSSHDTLCTSCTGFPLSTRVPGAEECERAVIDFVAFQDISIKRLQRLLQALEAPEGWGPTPRAGRAALQLKLRRRLTELLGAQDGALLVRLLQALRVARMPGLERSVRERFLPVH
modifications: glycosylated
TNFβ
  binding in dot blot: No appreciable binding
FasL; bound FLINT with FasL in solution, allowing trimer formation
  KD for FLINT-FasL relative to immobilized-FasL experiment: 2 orders of magnitude better
FasL; immobilized FasL (monomer bound), analyte in solution
  Kd: 113 nM
Jurkat cells [1]; Jurkat + antiCD3 + 1 ug test agent
  Cell apoptosis (positive staining with Annexin V): 27.77
Jurkat cells [1]; Jurkat + antiCD3 + 2 ug test agent
  Cell apoptosis (positive staining with Annexin V): 18.67
Jurkat cells [1]; anti CD3 + 15.625 ng
  Cell apoptosis (Annexin V, FACS): 28.80
Jurkat cells [1]; anti CD3 + 31.25 ng
  Cell apoptosis (Annexin V, FACS): 28.21
Jurkat cells [1]; anti CD3 + 62.5 ng
  Cell apoptosis (Annexin V, FACS): 28.99
Jurkat cells [1]; anti CD3 + 125 ng
  Cell apoptosis (Annexin V, FACS): 29.4
Jurkat cells [1]; anti CD3 + 250 ng
  Cell apoptosis (Annexin V, FACS): 28.93
Jurkat cells [1]; anti CD3 + 500 ng
  Cell apoptosis (Annexin V, FACS): 27.48
Jurkat cells [1]; anti CD3 + 1000 ng
  Cell apoptosis (Annexin V, FACS): 24.29
Jurkat cells [1]; anti CD3 + 2000 ng
  Cell apoptosis (Annexin V, FACS): 17.02
Jurkat cells [1]; anti CD3 + 3000 ng
  Cell apoptosis (Annexin V, FACS): 14.68
Jurkat cells [2]
  Cell apoptosis (Annexin V and PI, FACS): 3.32 and 4.6
Bone marrow cells
  bone marrow cell count: 4,900 ×1000
[3]; 10 μg/ml mFLINT, 8 hours hypoxia, 16 hours normal O2
  inhibition of hypoxia-induced apoptosis: 90%
[3]; mFLINT 2 μg/ml or 5 μg/ml, duplicate experiments
  inhibition of hypoxia/reperfusion-induced apoptosis: essentially complete inhibition
